Blank lines part the entries; values can stand above or below the binder they belong to.
Columns and labels:
[1] = molecular target: T1, human CD3 on primary human pan-T cells (human, UniProt P07766 23-207; P09693 23-182; P04234 22-171; P20963 22-164); test: Mirrorball cytometry on primary human pan-T cells, 600 µM HSA
T1 construct: whole, on cells; Native complex on T cells isolated from PBMC; also called CD3 on Pan-T cells
Procedure: (§1) The determination of T cell binding was performed with primary human T cells using Mirrorball laser scanning imaging cytometry. Therefore, primary T cells were isolated from human peripheral blood mononuclear cells (PBMCs) using a pan-T cell purification kit (Miltenyi Biotec). A titration of DARPin® protein #27, DARPin® protein #28 and DARPin® protein #29 and DARPin® protein #30 were incubated with 50′000 pan-T cells per well in presence of 600 μM human serum albumin (to mimic physiological serum concentration) for 30 minutes at 4° C. Two benchmark T-cell engagers, AMG330 and flotetuzumab were applied as controls, targeting CD33 or CD123. After washing, CD3 binding was detected by 1:100-diluted anti-penta-His Alexa Fluor 488 antibody (Qiagen). After 30 min incubation at 4° C., cells were washed and resuspended in Cytofix fixation buffer (BD Biosciences) and counterstained by 5 μM DRAQ5 (Abcam) for 15 min at RT. Median of mean fluorescence intensities of Alexa Fluor 488 binding on far-red counterstained cells were measured by Mirrorball using Cellista software (SPT Labtech) and data was plotted using GraphPad Prism 8.

[2] = molecular target: T2, extracellular domain of human CD70 (SEQ ID NO: 89), hCD70-Fc-trimer, ACRO Biosystems (human, UniProt P32970 52-193, chemically biotinylated where the biotinylated form was used); test: SPR (ProteOn XPR36), target on GLC chip, DARPin as analyte
T2 construct: also called human CD70-Fc-trimer; Bio.CD70
T2 sequence: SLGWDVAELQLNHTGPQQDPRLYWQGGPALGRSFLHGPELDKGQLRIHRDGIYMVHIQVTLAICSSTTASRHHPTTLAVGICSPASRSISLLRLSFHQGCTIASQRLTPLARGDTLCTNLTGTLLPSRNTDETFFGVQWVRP

[3] = molecular target: T3, biotinylated extracellular domain of human CD33 (SEQ ID NO: 87), Fc and Avi tagged (human, UniProt P20138 18-259, biotinylated with BirA-GST (Avi tag)); test: as above
T3 construct: also called hCD33; human target hCD33

human serum albumin = molecular target: T4, human serum albumin (human, UniProt P02768 25-609); test: SPR (ProteOn XPR36), target on GLC chip
T4 construct: also called HSA; SA
Excerpt: (§2) For that, DARPin® protein #27, DARPin® protein #29, DARPin® protein #47 and DARPin® protein #48 and DARPin® protein #49, DARPin® protein #50, DARPin® protein #51, DARPin® protein #52, DARPin® protein #31, DARPin® protein #53, DARPin® protein #54, DARPin® protein #55, DARPin® protein #34, DARPin® protein #33, DARPin® protein #39 and DARPin® protein #36 were subcloned and expressed as described above into derivatives of the pQE30 (Qiagen) expression vector, containing an N-terminal His-tag, CD33, CD123 and/or CD70 binding ankyrin repeat domains, followed by a CD3 specific ankyrin repeat domain and for some constructs by a human serum albumin specific ankyrin repeat domain.
(§3) Briefly, biotinylated human CD70, CD123 and CD33 was diluted in PBST (PBS, pH 7.4 containing 0.005% Tween 20®) and coated on a GLC chip (BioRad) to a level of around 200, 460 and 450 resonance units (RU) respectively. HSA in NaOAc pH 5.0 was directly immobilized on the GLC chip to a level of 800 RU. Bio.CD70, bio. CD33 and bio. CD123 required to have Neutravidin coated first to a level of 6000 RU before the biotinylated targets could be applied. The interaction of the selected ankyrin repeat proteins and human CD70, CD123 and CD33 was then measured by injecting 300 μl running buffer (PBS, pH 7.4 containing 0.005% Tween 20®) containing serial dilutions of ankyrin repeat proteins covering a concentration range between 100 nM and 2.6 nM (100, 40, 16, 6.4 and 2.6 nM respectively) for multi-trace SPR measurements, with an association of 120 s and dissociation of 1200 s using a constant flow of 100 μl/min. The regeneration was performed using 30 μl of 4 mM Glycine pH 2. The signals (i.e. resonance unit (RU) values) of the interspots and a reference injection (i.e. injection of running buffer only) were subtracted from the RU traces obtained after injection of ankyrin repeat protein (double-referencing).

[4] = molecular target: T5, biotinylated extracellular domain of human CD123 (SEQ ID NO: 88), Fc and Avi tagged (human, UniProt P26951 19-303, biotinylated with BirA-GST (Avi tag)); test: SPR (ProteOn XPR36), target on GLC chip
T5 construct: also called hCD123
T5 sequence: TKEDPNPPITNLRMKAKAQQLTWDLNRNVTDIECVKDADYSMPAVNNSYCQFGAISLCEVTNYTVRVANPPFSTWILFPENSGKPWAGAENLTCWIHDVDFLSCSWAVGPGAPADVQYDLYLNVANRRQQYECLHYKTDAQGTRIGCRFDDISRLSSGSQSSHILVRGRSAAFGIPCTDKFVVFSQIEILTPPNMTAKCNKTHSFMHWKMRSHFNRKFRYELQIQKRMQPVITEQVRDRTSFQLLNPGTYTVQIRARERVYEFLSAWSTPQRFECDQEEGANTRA
Excerpt: as §2, §3

[5] = molecular target: T1, human CD3 on primary human pan-T cells; test: Mirrorball laser scanning cytometry on primary human pan-T cells, anti-penta-His Alexa Fluor 488 detection, 600 µM HSA
Procedure: as §1, with “of CD3” for “of T cell”, “protein #7,” for “protein #27,”, “protein #8” for “protein #28”, “protein #9” for “protein #29”, “protein #10, formatted into a trispecific format (including CD33 and CD123 binding ankyrin repeat domains), DARPin® protein #11, DARPin® protein #12, DARPin® protein #13 and DARPin® protein #14 UN tetraspecific format (including an additional ankyrin repeat domain binding specifically to human serum albumin)” for “protein #30”

T1 sequence (P07766 23-207, chain 1 of 4): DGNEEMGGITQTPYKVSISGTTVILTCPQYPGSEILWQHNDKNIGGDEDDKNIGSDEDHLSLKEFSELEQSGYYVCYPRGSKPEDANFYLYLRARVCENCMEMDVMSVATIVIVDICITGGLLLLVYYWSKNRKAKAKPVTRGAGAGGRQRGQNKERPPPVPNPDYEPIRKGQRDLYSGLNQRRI
T1 sequence (P09693 23-182, chain 2 of 4): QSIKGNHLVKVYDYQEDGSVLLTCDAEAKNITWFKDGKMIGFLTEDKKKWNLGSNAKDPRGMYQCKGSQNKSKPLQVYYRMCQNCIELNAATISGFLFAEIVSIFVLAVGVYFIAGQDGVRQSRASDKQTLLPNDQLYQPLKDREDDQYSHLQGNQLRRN
T1 sequence (P04234 22-171, chain 3 of 4): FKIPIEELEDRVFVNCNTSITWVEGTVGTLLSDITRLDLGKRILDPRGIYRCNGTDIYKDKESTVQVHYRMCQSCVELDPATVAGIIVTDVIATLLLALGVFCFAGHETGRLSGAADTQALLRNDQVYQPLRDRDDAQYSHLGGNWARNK
T1 sequence (P20963 22-164, chain 4 of 4): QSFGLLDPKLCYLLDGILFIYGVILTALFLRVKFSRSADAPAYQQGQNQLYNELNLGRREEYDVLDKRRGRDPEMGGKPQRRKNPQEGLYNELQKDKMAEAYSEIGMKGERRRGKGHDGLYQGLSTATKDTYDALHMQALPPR
T3 sequence (P20138 18-259 R69G): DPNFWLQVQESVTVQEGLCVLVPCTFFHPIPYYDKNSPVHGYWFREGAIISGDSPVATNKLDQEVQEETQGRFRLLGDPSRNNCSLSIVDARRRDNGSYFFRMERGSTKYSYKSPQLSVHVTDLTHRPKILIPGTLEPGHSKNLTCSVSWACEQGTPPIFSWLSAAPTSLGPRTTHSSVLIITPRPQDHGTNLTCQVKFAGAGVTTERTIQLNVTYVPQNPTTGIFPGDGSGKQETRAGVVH
T4 sequence (P02768 25-609 limits assumed): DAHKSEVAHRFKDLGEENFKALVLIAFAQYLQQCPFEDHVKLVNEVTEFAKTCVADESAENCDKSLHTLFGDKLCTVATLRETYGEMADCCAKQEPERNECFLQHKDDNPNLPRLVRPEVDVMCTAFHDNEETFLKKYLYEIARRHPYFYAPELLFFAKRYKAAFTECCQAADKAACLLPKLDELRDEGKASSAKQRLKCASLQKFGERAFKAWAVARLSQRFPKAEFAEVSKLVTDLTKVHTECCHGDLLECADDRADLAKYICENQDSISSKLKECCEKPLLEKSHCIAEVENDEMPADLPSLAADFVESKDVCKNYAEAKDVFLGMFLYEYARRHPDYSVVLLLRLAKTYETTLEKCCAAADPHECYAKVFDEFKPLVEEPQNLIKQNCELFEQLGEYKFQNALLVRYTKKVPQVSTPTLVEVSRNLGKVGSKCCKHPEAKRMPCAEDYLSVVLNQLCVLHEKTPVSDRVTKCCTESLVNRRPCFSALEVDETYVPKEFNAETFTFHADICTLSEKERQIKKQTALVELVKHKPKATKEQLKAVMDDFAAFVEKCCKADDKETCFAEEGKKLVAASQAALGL

EC50 [1]: 1.8 nM
B1: DARPin® protein #30 (designed binder)
chain: DLGYKLLQAAYDGQLDEVRILLKAGADVNAKDSRGQTPLHYAASIGHLEIVEVLLKAGADVNAKDDHGWTPLHLAAWSGHLEIVEVLLKAGADVNAQDQEGTTPADLAAVQGHQDIAEVLQKAAGSPTPTPTTPTPTPTTPTPTPTGSDLGKKLLEAALEGQDDEVRELLKAGADVNAKDQEGYTPLHLAAALGHLEIVEVLLKAGADVNAKDSIGRTPLHLAAYKGHLEIVEVLLKAGADVNAQDLLGETPADLAAEQGHEDIAEVLQKAAGSPTPTPTTPTPTPTTPTPTPTGSDLGVKLLRAAFHGQDDEVRILLAAGADVNAKDTDGETPLHYAAQFGHLEIVEVLLKAGADVNAKDAYGATPLHWAAWHGHLEIVEVLLKAGADVNAQDVSGATPADLAAKVGHEDIAEVLQKAAGSPTPTPTTPTPTPTTPTPTPTGSDLGQKLLEAAWAGQDDEVRELLKAGADVNAKNSRGWTPLHTAAQTGHLEIFEVLLKAGADVNAKDDKGVTPLHLAAALGHLEIVEVLLKAGADVNAQDSWGTTPADLAAKYGHEDIAEVLQKAA
notes: CD70-CD123-CD33-CD3; not shown: His-tag implied by anti-penta-His detection

binding result [5]: no binding (tested: about 3000 nM)
B4: DARPin® protein 11 (designed binder)
single chain: DLGKKLLEAARAGQDDEVRELLKAGADVNAKDYFSHTPLHLAARNGHLKIVEVLLKAGADVNAKDFAGKTPLHLAAADGHLEIVEVLLKAGADVNAQDIFGKTPADIAADAGHEDIAEVLQKAAGSPTPTPTTPTPTPTTPTPTPTGSDLGKKLLEAARAGQDDEVRILMANGADVNALDWLGHTPLHLAAYEGHLEIVEVLLKNGADVNAIDDNNGFTPLHLAAIDGHLEIVEVLLKNGADVNAQDKFGKTAFDISIDNGNEDLAEILQKAAGSPTPTPTTPTPTPTTPTPTPTGSDLGDKLLLAATSGQDDEVRILLAAGADVNAKDYDGDTPLHLAADEGHLEIVEVLLKAGADVNAKDYSGSTPLHAAAAYGHLEIVEVLLKAGADVNAQDVFGYTPADLAAYVGHEDIAEVLQKAAGSPTPTPTTPTPTPTTPTPTPTGSDLGQKLLEAAWAGQDDEVRELLKAGADVNAKDSQGWTPLHTAAQTGHLEIFEVLLKAGADVNAKDDKGVTPLHLAAALGHLEIVEVLLKAGADVNAQDSWGTTPADLAAKYGHEDIAEVLQKAA
notes: half-life extended format of DARPin® protein #7; also called HSA-CD123-CD33-CD3

The next lines start with the binder.

B2: DARPin® protein #28 (designed binder)
chain: DLGYKLLQAAYDGQLDEVRILLKAGADVNAKDSRGQTPLHYAASIGHLEIVEVLLKAGADVNAKDDHGWTPLHLAAWSGHLEIVEVLLKAGADVNAQDQEGTTPADLAAVQGHQDIAEVLQKAAGSPTPTPTTPTPTPTTPTPTPTGSDLGWKLLLAASRGQDDEVRILLAAGADVNAKDIDEGYTPLHIAAYYGHLEIVEVLLKAGADVNAKDRYGKTPLHLAAISGHEDIAEVLLKAGADVNAQDDKGDTPADLAADYGHEDIAEVLQKAAGSPTPTPTTPTPTPTTPTPTPTGSDLGQKLLEAAWAGQDDEVRELLKAGADVNAKNSRGWTPLHTAAQTGHLEIFEVLLKAGADVNAKDDKGVTPLHLAAALGHLEIVEVLLKAGADVNAQDSWGTTPADLAAKYGHEDIAEVLQKAA
notes: CD70-CD33-CD3; not shown: His-tag implied by anti-penta-His detection
EC50 [1]: 1.41 nM

B3: DARPin® protein #29 (designed binder)
chain: DLGYKLLQAAYDGQLDEVRILLKAGADVNAKDSRGQTPLHYAASIGHLEIVEVLLKAGADVNAKDDHGWTPLHLAAWSGHLEIVEVLLKAGADVNAQDQEGTTPADLAAVQGHQDIAEVLQKAAGSPTPTPTTPTPTPTTPTPTPTGSDLGVKLLLAASRGQLDEVRILLKAGADVNAKDIDEGYTPLHIAAYYGHLEIVEVLLKAGADVNAKDRYGKTPLHLAAISGHLEIVEVLLKAGADVNAQDDKGDTPADLAADYGHQDIAEVLQKAAGSPTPTPTTPTPTPTTPTPTPTGSDLGQKLLEAAWAGQDDEVRELLKAGADVNAKNSRGWTPLHTAAQTGHLEIFEVLLKAGADVNAKDDKGVTPLHLAAALGHLEIVEVLLKAGADVNAQDSWGTTPADLAAKYGHEDIAEVLQKAA
notes: CD70-CD33-CD3; not shown: N-terminal His-tag
EC50 [1]: 1.97 nM
Kd [2]: 0.18 nM
Kd [3]: 4.8 nM
binding result (human serum albumin): no binding (tested: 100 nM (highest concentration))
binding result [4]: no binding (tested: 100 nM (highest concentration))

B5: DARPin® protein #14 (designed binder)
chain: DLGKKLLEAARAGQDDEVRELLKAGADVNAKDYFSHTPLHLAARNGHLKIVEVLLKAGADVNAKDFAGKTPLHLAAADGHLEIVEVLLKAGADVNAQDIFGKTPADIAADAGHEDIAEVLQKAAGSPTPTPTTPTPTPTTPTPTPTGSDLGKKLLEAARAGQDDEVRILMANGADVNALDWLGHTPLHLAAYEGHLEIVEVLLKNGADVNAIDDNNGFTPLHLAAIDGHLEIVEVLLKNGADVNAQDKFGKTAFDISIDNGNEDLAEILQKAAGSPTPTPTTPTPTPTTPTPTPTGSDLGDKLLLAATSGQDDEVRILLAAGADVNAKDYDGDTPLHLAADEGHLEIVEVLLKAGADVNAKDYSGSTPLHAAAAYGHLEIVEVLLKAGADVNAQDVFGYTPADLAAYVGHEDIAEVLQKAAGSPTPTPTTPTPTPTTPTPTPTGSDLGQKLLEAAWAGQLDEVRILLKAGADVNAKNSRGWTPLHTAAQTGHLEIFEVLLKAGADVNAKTNKRVTPLHLAAALGHLEIVEVLLKAGADVNARDTWGTTPADLAAKYGHRDIAEVLQKAA
notes: HSA-CD123-CD33-CD3, half-life extended form of #10; not shown: His-tag implied by anti-penta-His detection
EC50 (read off the curve) [5]: ~20 nM

Reference: US20240254229A1 (Molecular Partners, published 2024)
